Measurements reported in the DeepSol protein solubility set.

experiment: soluble on expression in E. coli; label from the status in PepcDB or PDB records

Row | Sequence | soluble on expression in E. coli
1 | YYHSVIVANLAETAAEKIGANPILARIGAYYHDIGKMKRPHFFTENIRDGKNPHEDITPSLSHLVLNEHVKYGVELARKYRLPLLVEFIIPQHHGTRSQKYFYYKAKQQFEDIPEEEFRYPGPKPQFKEAAIIMLADSVEA | soluble
2 | MKYSKEYDEKTVVKINDVKFGEGFTIIAGPCSIESREQIMKVAEFLAEVGIKVLRGGAFKPRTSPYSFQGYGEKALRWMREAADEYGLVTVTEVMDTRHVELVAKYSDILQIGARNSQNFELLKEVGKVENPVLLKRGMGNTIQELLYSAEYIMAQGNENVILCERGIRTFETATRFTLDISAVPVVKELSHLPIIVDPSHPAGRRSLVIPLAKAAYAIGADGIMVEVHPEPEKALSDSQQQLTFDDFLQLLKELEALGWKG | soluble
3 | SNAMKLIAIDLDGTLLNSKHQVSLENENALRQAQRDGIEVVVSTGRAHFDVMSIFEPLGIKTWVISANGAVIHDPEGRLYHHETIDKKRAYDILSWLESENYYYEVFTGSAIYTPQNGRELLDVELDRFRSANPEADLSVLKQAAEVQYSQSGFAYINSFQELFEADEPIDFYNILGFSFFKEKLEAGWKRYEHAEDLTLVSSAEHNFELSSRKASKGQALKRLAKQLNIPLEETAAVGDSLNDKSMLEAAGKGVAMGNAREDIKSIADAVTLTNDEHGVAHMMKHLL | soluble
4 | MSLGNVGHLITPAIPLDYGELLAAPVTSSESMAQLRGRWIVLSVADGPCAEVCRQNLYKTRQMRLMLNKEIPRVRRLLLLTDPGAADALADWLRQDEFLAVAGLAPTLREKLEKAVGGPLQPGQILLLDPLGNLMMYYDADFDPYGVLKDLKHLLRASQIGEGHHHHHH | soluble
5 | AHHHHHHGSFPHEEKLIREKLGREPNDLEKAMLEVMWSEHVSYKSSRKWLKLLPTKNEHVILGPGEDAGIIKFDDKTWIVIGIESHNHPSAVEPYGGAATGVGGIVRDILCMGARPIALLDPIRFGPLEKEKNRYLFEYVVKGIADYGNRIGVPTVGGETEFDESLDNYTLVNVACIGIMRPEHLVHSYVTEPGLKLVIVGNRTGRDGIHGVTFASEELGENAEEEDRSAVQIPDPFTEKLLIEATLEAVYTGKVKALKDLGGGGLTCAASEMVGKRGFGAIIYADKVPLREPGMTPLEVMISESQERMLFAIKPEDVEELGKIFEKYELEWSVVGEVIEEPKFIVYWKGRKVAELPIELLTNVPTIEWPMKEYRIEEDVETPQISLEEAFEKVWRSPNVISKRWVWEQYDHEVQGRTVIKPGFDSAVLKINEEYGLAITADGNPTHCYLNPYHGAMGVVVEVVRNLVSVGAKPLALVDNLNFASPERPEVYWSFVETIKGLADAAKAFGLAYVSGNVSFYNEVVNKPVKPTPVVAGVGKVKLEKIPRGPREGDLIGLIGETRKELGGSELYRVLGVSKGIAPRVDLEVEKRNAESVLKLIEEGLVSFVHDVSRGGVAVALAELSTWFNVGIKSEITTSLLPLDFAFSESHGRYIVTFPEENLEAVKKIAPITLLGRIGGEKFELKINGEKVSKTVKWLSDVHWNELYRIMD | not soluble
6 | MKIFVCEDDQRQREHMVSIIKNYIMIEEKPMELALATNDPYEVLEQSKELNDIGCYFLDIQLEADMNGIKLASEIRKHDPVGNIIFVTSHSELTYLTFVYKVAAMDFIFKDDPSELKMRIIDCLETAHTRLKLLSKESNVDTIELKRGSNSVYVQYDDIMFFESSTKSHRLIAHLDNRQIEFYGNLKELAQLDERFFRCHNSFVINRHNIESIDSKERIVYFKNGENCFASVRNVKKI | not soluble
7 | MGSDKIHHHHHHMFRPQDDFTYLMPVHFGGGKFDPETLVTQKATALSLSFETERDLLENYIPEGFELLAPEVQVAFNKFTEINWLHGGQYNLINVAAPVRFHGKKDELDGAYTLVVWENKTAPILGGREQTGIPKIYADIEDLHIVRPHFATTVSYEGNTFLNMDFEATGSITGRDLDALKSQFLTMNTLGWRYIPKVGAPGAELSQFVLYPQGMEVETAEVGKGSLKWTELTPMQSPAQYYIVNSLASLPIKRVTQAVLVEGRAILRAMGARVIE | not soluble
8 | MGSDKIHHHHHHMRIDLSLKPTPVQFLKRLSEKYGFNIYVKRDDLTELVGSGNKIRKLEYLLWEALKKGATTVFTCGGLQSNHARATAYVSRRYGLKPVLFLRKGEKVLNGNLLLDILLGAEIVEVSPEEYERIDEIFDVHKKMREKKGEKVYVIPEGGSNSLGAFGYFNAVLEMKDQLNLESFDAIVCAVGSGGTIAGLSAGISFLEYHVPVVGVNVTTKNSDYFVGKVKRIISGMEEYGLRVNETVFEVVDDYRGPGYAIPSSEDVEILKEVASIEGIILDPVYTAKAFRGMIEMFRNSEKNVLFIHTGGIFGLFAQSRRLV | not soluble
9 | MDKKELFDALDDFSQQLLVTLADVEAIKKNLKSLVEENTALRLENSKLRERLGEVEADAPVKAKHVRESVRRIYRDGFHVCNDFYGQRREQDEECMFCDELLYRE | not soluble
10 | MSLQRSYCYQLTRRFCQSHEHTKLAKWLNINSKLNPFRPDPPVGGSPFLHGVGDEDKPVYIPQDVRVGHTFVVGTTRVGKTRLASILINQDIRNGDAVIVVDPKGDQDLVRDMVAACKVSGRTEDFKIVHLGFPEQSAQYNPLKKFDQISEVATRITDAISAEGEGKQFAAFAWKYVNIVAICLEEMNQPITYQTIAFYISRLEQLLMSYADNILPNHYLNYHQEIDDIIEEHDSKIGKNNKTKSPMERHQAVIQYIKDHINKTIKSNNAEALHDQILIDLYDAAIMDKHYYDKITASVGPVLSEINKSNASKILSSKAQPGDIELMDVIKNKKVLYIGLDSLTNPNIAQAVGKAFLSDLVSTAGKIYKEEGHHHHHH | soluble
11 | MSLLFDQGHAYQPLAEVLRPQTLTDYIGQQHILGPGKPLRQTLENRNLHSMIFWGPPGVGKTTLANVISNTVEARFEVLSAVQAGVKDIKLVAEKAKQAQAYGEVTVLFVDEVHRFNKAQQDAFLPYVENGTFIFIGATTENPSFELNSALLSRARVYVLKSFTDDDFRQLWQRARSLDERIAKLAIENDALDGLIQFADGDARRFLNFLEIAIDFFTSEAVITLDDIRELLSHQPRRFDKGGENFYDQISAFHKSVRGSSPDGALYWLCRMLDGGIDPLYLARRMVRIASEDIGNADPRALTLALNAWDSQERLGSPEGELSLAQAAVYLASAPKSNAVYTAFNAMMSAVRSSHSAEVPLHLRNAPTSLMKDLDYGRDYRYAHDEPHAYAAGEVYLPDHMQGQRFYDPVDRGLEQKIRQKLDFLKQLDEQAQNQEDEGHHHHHH | soluble
12 | MGSDKIHHHHHHMLDLNHGSGCQYQKPDRDPGITVAVNAAIDAALVVRNRSQVARQYVSTSGIGRECLRQIQYDYLAVPKDEGRDFEPKTLRIFEAGHRGEDVVAAWLRAAGFDLRTERRDGRQFGFSALNGRFKGHIDGCLVGGPVAMAYPALWENKALGVSSWKDVVKRGVVLSKPVYAAQLALYQAYMDLPAPTLFTALNRDTWEIHCELVPFDAALAQTMSDRAVQVVRASDAQELLPRASAERTSVICRGGKTAGGWHGACSWQDRCWGRCR | not soluble
13 | MTTQTTPAHIAMFSIAAHGHVNPSLEVIRELVARGHRVTYAIPPVFADKVAATGPRPVLYHSTLPGPDADPEAWGSTLLDNVEPFLNDAIQALPQLADAYADDIPDLVLHDITSYPARVLARRWGVPAVSLSPNLVAWKGYEEEVAEPMWREPRQTERGRAYYARFEAWLKENGITEHPDTFASHPPRSLVLIPKALQPHADRVDEDVYTFVGACQGDRAEEGGWQRPAGAEKVVLVSLGSAFTKQPAFYRECVRAFGNLPGWHLVLQIGRKVTPAELGELPDNVEVHDWVPQLAILRQADLFVTHAGAGGSQEGLATATPMIAVPQAVDQFGNADMLQGLGVARKLATEEATADLLRETALALVDDPEVARRLRRIQAEMAQEGGTRRAADLIEAELPARHERQEPVGDRPNVGDRPAGVRSDRQRSAL | soluble
14 | MQPVTKNGESMNKTALLLTVVGAVLLTGCARQENEYTVKEYTSMANPASVYCVEQGGQLEMVTENEQRVTYCVTKDGEKIEQWEYFRQNHDQQ | not soluble
15 | SLYRIVLGKVSTLSAAPLPPGLREQAPQGPRRERWLAGRALLSHTLSPLPEIIYGEQGKPAFAPETPLWFNLSHSGDDIALLLSDEGEVGCDIEVIRPRANWRWLANAVFSLGEHAEMDAVHPDQQLEMFWRIWTRKEAIVKQRGGSAWQIVSVDSTYHSSLSVSHCQLENLSLAICTPTPFTLTADSVQWIDSVN | not soluble
16 | METPLEKALTTMVTTFHKYSGREGSKLTLSRKELKELIKKELCLGEMKESSIDDLMKSLDKNSDQEIDFKEYSVFLTMLCMAYNDFFLEDNK | soluble
17 | MRGTDMAKQQMNIKIKKGEQFPVTIQRIGINGEGVGYFQKQVVFVPGALPGEEVIVEATDIHPTYAEAKIKRIRKRSPNRIKPPCPLYDQCGGCQLQHLSYEAQLEAKRDIVIQALRRHARRLDVDKLDIRPTIGMDNPWHYRNKSQFQVGMKEGKVLAGLYGINSHRLIDLSECRVQHPQTTRVTNIVKTILQDLRIPIYNERTRTGVVRTIVVRVGFHTGDIQLVLVTATKDIPRKQLLIDEIRRRLPEVKSIVQNINGEKTSLIFGDETEVLAGDEYIQETLGDLSFELSSRAFFQLNPLQTVKLYDEVKKAAALTGTERIVDAYCGVGTIGLWLARDAKEVRGMDTIPEAIEDAQNNAKKHGFTNTHYVVGKAEYWLPKWVKGGWKPDVIIVDPPRVGCDRALLETILHVRPKTVVYVSCNPSSLARDLDALAAQYRVDYIQPVDMFPHTAHVECVAKVRLEL | not soluble
18 | MGSDKIHHHHHHMFLKNAWYVAAWDHEVRTDLQQIMVLGEKICMFRTQSGDLVALEDACPHRKLPLSKGRIKGDTVECGYHGLTFNCAGTCVWAPGASGIPSNARVHAYPLAEKYGLIWIWMGNPALADPSDIFEIENYGNPDWGINRGAAMELDCNYLLMCDNLLDPTHVAWVHQSSFAAEATKDTPLHVTKTDTGIIVHRWMMDHDPAPFYKKVVEFDGNCDRLQHYEVRYPSHALVRAVFTPAGTGGPDGPLHANTFIMDSYNFMTPVSEGKTRYYWFQLRNIRPDDEALSQMMSDDVHHAFEEDRAVLNEVQIGMSSKTSPHIDLPIDGGQLRFRRQLQAMINEEAQVDAQMAE | not soluble
19 | MKITDLRCAVIGKHPIVRIVTDEGLHGLGEVEFTKTYLKPFVLHFREALIGEDPTDVERVMLKIRQRGSFKPYGAAVSAIEHALWDIAGKAAGVPVYKLLGGKVRDKVRVYNGSIRRKRAGDRPEDYAADVKWMMEQPQNFFMVKQGISFHSNMKDSIEGFHYGVTQKKAGYHGAMDQGVISERGFNHMLDCVIAMKEVLGDKVSLALDCGPGWMLPDAIKFARAVEKYNLMWLEDMLTGDYVPWVNPQAYRELTTSTSTPIHTGEQIYLRHNFKELIETQAVRVIGPDPADIGGIAELKWVAEHAYMHSILMAPHGTANGLLGLGALINVCATLPANYVAFEYPSASDPWWEDLVIGLPAQIVRDSMVDLLEAPGLGLDIDAEAARKYLGEEDAGFFD | not soluble
20 | SLPHIITRKVISVEQNWLQQLANAISDPLQLLQQLEIDPSPWQDGFEARKLFAQRVPQSFVDRMQKGNPADPLLRQVLPLSAEFEIHPGYSHDPLDEQNNTVPGLLHKYKNRCLLIVKGGCAINCRYCFRRHFPYEDNKGGKSAWQQSLDYIAQNPQLNEVIFSGGDPLMAKDHEIAWLMERIAAIPHIKRLRIHSRLPVVIPARITDELVELFAQTRLQVLLVTHINHANEINLELKQQMARLRAVNVTLLNQGVLLKGVNDTVDAQVSLSETLFDAGILPYYLHVLDKVQGAAHFYVSDDKARQIMAGLIEQVSGYLVPKLTREIGGRPSKTPLDLHLE | not soluble
21 | MKKTAIAIAVALAGFATVAQAEVKLHESGAGLVKPGASVEISCKATGYTFSSFWIEWVKQRPGHGLEWIGEILPGRGRTNYNEKFKGKATFTAETSSNTAYMQLSSLTSEDSAVYYCATGNTMVNMPYWGQGTTVTVSSASTKGPSVFPLAPSSKSTSGGTAALGCLVKDYFPEPVTVSWNSGALTSGVHTFPAVLQSSGLYSLSSVVTVPSSSLGTQTYICNVNHKPSNTKVDKKVEPKSCSAWSHPQFEK | soluble
